Test system: K4 kissing-loop RNA reporter
Experiment: apparent KD of K4 kissing-loop reporter; higher = weaker reporter binding
Conditions: Eterna round: R107
Procedure: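 RNA-MaP round R107: designed RNA switches with theophylline, tryptophan, arginine or FMN aptamers are transcribed on-chip within common flanks. They are titrated with a labelled K4 kissing-loop RNA reporter in RNA-MaP buffer (100 mM Tris pH 7.5, 80 mM KCl, 4 mM MgCl2), without ligand or with the indicated ligand. Median apparent KD per design.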

[1] = input ligand: theophylline 20 uM
[2] = input ligand: tryptophan 2.4 mM
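Note: bound reporter read as fluorescence of individual clusters on recovered sequencing chips by microscopy, with normalized cluster intensities fitted with a binding model.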

Sequence | apparent KD of K4 kissing-loop reporter (input ligand: FMN 200 uM) | apparent KD of K4 kissing-loop reporter (input ligand: arginine 13.2 mM) | apparent KD of K4 kissing-loop reporter (input ligand: none) | apparent KD of K4 kissing-loop reporter [1] | apparent KD of K4 kissing-loop reporter [2]
CAGCAGAGUGAUGUUCUGCUUACUGCGGAUACCAGCUUUGCCAGAGGCCCUUGGCAGCCGGGCGGCUCAGUGAUGUUGGGUUGUU [Same State Theophylline A GF 14] | 0.234 µM | 0.14 µM | 0.186 µM | 0.208 µM | 0.167 µM
AAAUUUGCCACUGAUACCAGCCAGUGAUGUUGGCGGUAGUUCUAUGGUACCAUACAUUGUGGCCCUUGGCAGCAGGGCACAGAGC [Raxeisra] | 0.115 µM | 0.0998 µM | 0.0927 µM | 0.115 µM | 0.113 µM
GGACGAGUGAUGUUCGUUAUUAUGCAUUCAGAGGAUAUAGGAUUAGCUAGAAGGCUGAAUCAAUCUUCGAGUGAUGUUCGAGGAU [Same State FMN A GF 10] | 0.146 µM | 0.146 µM | 0.154 µM | 0.151 µM | 0.142 µM
CGAGUGAUGUUCGUUCUUUUAUUUUUUUGACAGGAUAUGCGGAAACGCAGAAGGGUCACCUUUGAGUUAAAAGAAUUUAAGUUAU [Ex FMN A 24] | 0.309 µM | 0.284 µM | 0.353 µM | 0.287 µM | 0.235 µM
UGUCAUUGGUCGGCCGCCACUUCAAAGAGAGUGAUGUUCUUAAAGACGGAUCGAAAGAUCUGUCGAAGGACCGGGACCGAUGACU [TrypBS 17 #SwitchBubble #StaticStem] | 1.77 µM | 0.973 µM | 1.11 µM | 1.2 µM | 0.285 µM
UAGGUGCCGAACCAGUGAUGUUGGAGUCAUCGAGGACCGGUACGGCCGCCACUCGGCAGCGCCGGCGCGAUUAAUUGCGGAGACA [theeternabot_sameState_KL_Trp_A_7] | 0.689 µM | 0.39 µM | 0.596 µM | 0.47 µM | 0.698 µM
GCUUUCCGUGCGGCCGCCACUGAUCUAAGUGAUGUUUAGAUCGCAUUCGAACCGGUUACCCAGAGCAGGACCGGGCACCAGCGCU [theeternabot_exclusion_KL_Trp_B_35] | 0.097 µM | 0.0849 µM | 0.0898 µM | 0.0901 µM | 0.0919 µM
UACGUUUUAUUAACACUAAAUACAACUGAAGGAGCGACAAUAAAGUCAGGUAGGUCGCAGAAUUAAUGAGUGAUGUUCAUUUUUA [JR_ExcArginiA_Sub015] | 0.0562 µM | 0.117 µM | 0.0659 µM | 0.092 µM | 0.0481 µM
AAACAUUGGUCGGAUACCAGCUUGAUCGGAAACGAUCUGCUGGAGUGAUGUUCCAAGUAAAGCCCUUGGCAGCCGACCGAUGAAA [MAT - Same State Theophlline B - Mod of Eli - D17] | 0.133 µM | 0.0628 µM | 0.0556 µM | 0.143 µM | 0.0745 µM
AAUGCAUAGUGAAGGAGCGCGAUAAGCAGUGAUGUUGCUUAGUUAUAAGUGUUUAUUUAUUCGCAGGUAGGUCGCACUUUGCAUA [JR_ExcArginiB_Sub019] | 0.147 µM | 0.111 µM | 0.124 µM | 0.117 µM | 0.132 µM
AGGUUUUGAUUAGGAUAUGCAUUGACGAUGAGAAUAUAGUGAUGUUAUAUACUACGAAUUAGUAAAGUAGAAGGGAUUGAGGUUU [SSFMNB.aA] | 0.353 µM | 0.275 µM | 0.324 µM | 0.368 µM | 0.241 µM
ACGAUCUUCGGCCUAUGAGUGAUGUUUAUGCGAGGACCGGUACGGCCGCCACUCGGGCGGUUAUUCACUACGCCUCUUCCGUCGA [theeternabot_exclusion_KL_Trp_A_37] | 0.9 µM | 0.435 µM | 1.04 µM | 0.517 µM | 0.649 µM
AUCGAGCCCAUCGGUGAGUCAUUAGUUGAUACCAGAGCUAUUGGCCUCCCUUGGCAGCAAGUAAACCUGUUUAGUGAUGUUAAAC [theeternabot_exclusion_KL_Theo_A_15] | 0.178 µM | 0.15 µM | 0.168 µM | 0.162 µM | 0.157 µM
UGACUGGACUGAAGGAGCGCCACGGUCAUAGACCGAAUAAGGAGUGAUGUUCCACAUAAAAGGCAGGUAGGUCGCAGUCUAGUCU [ArgBS 2 #SwitchBubble #StaticStem] | 0.121 µM | 0.113 µM | 0.107 µM | 0.0981 µM | 0.101 µM
AGAACUGUCUGAGAUACCAGCCGAGGAGUGAUGUUCCGGCUCGACGAAACGUCGAGCCACGGCCCUUGGCAGCUCAGACAGUUCA [Omei KL Theo B SS A v1] | 1.36 µM | 0.287 µM | 0.647 µM | 1.06 µM | 0.455 µM
ACAGAGUGAUGUUUUGUAAAGAUCUUUGAUACCAGCGCCAGAAAUCGCCCUUGGCAGCAAGCCGUACAUACGUUGAUUGAUCCAC [theeternabot_exclusion_KL_Theo_A_14] | 0.738 µM | 0.694 µM | 0.926 µM | 0.758 µM | 0.577 µM
AUAUAGUGAUGUUAUAUAAUAAUCUCUGAUACCAGUCAUUUAGAAGACCCUUGGCAGCAGCUAUAUAUAGGGAAACAAUACAUAA [AstrosExytheA#1] | 0.739 µM | 0.649 µM | 0.709 µM | 0.925 µM | 0.491 µM
UUUGGUAGCGGUGUUGAUUAGGGAGCGGAAGGAGCGCCGAGGAGGGCAGGUAGGUCGCCGGAAUGUAGUGAUGUUGCAUAGAGGU [ExArgA.Ab] | 0.269 µM | 0.227 µM | 0.253 µM | 0.574 µM | 0.214 µM
GAUUGUGAUGGAAACAUCGCAAUCUCUGAAGGAGCGCGUGAAAACGCAGGUAGGUCGCAGGACGACUUUGACAGUGAUGUUGUCG [Ex Arginine A K4 4] | 0.186 µM | 0.223 µM | 0.201 µM | 0.216 µM | 0.18 µM
UGGAGUUGACGAAAAGUCAACUCCUGAGAUACCAGUGACGAAGGUCACCCUUGGCAGCUCACUGCCAGUGAUGUUGGAAGAUAAA [whbob_SS_Theo_A_w47] | 0.273 µM | 0.292 µM | 0.303 µM | 0.396 µM | 0.174 µM
CGGAUGUAGUGAUGUUAUAUUAGAUGUAGACGAGGACCGGUACGGCCGCCACUCGUGAUGGCUGCUAGCACGUUUCGAGGUUUGC [ExTryptoA.Cp] | 0.515 µM | 0.624 µM | 0.604 µM | 0.438 µM | 0.489 µM
